Measured values from patent US20230212319A1, “NOVEL ANTIGEN BINDING DOMAINS AND SYNTHETIC ANTIGEN RECEPTORS INCORPORATING THE SAME” (University of Southern California, priority 2020, published 2023).

B1: 22220 (protein)
chain: MALPVTALLLPLALLLHAARPACEVQLLESGGGLIQPGGSLRLSCAASGFTFSSHAMTWVRQAPGKGLEWVSAISGSGDYTHYADSVKGRFTISRDNSKNTVYLQMNSLRAEDSAVYYCAKDEDGGSLLGHRGQGTLVTVSSGTGAIGFLRTAEFDIQMTQSPSSLSASVGDRVTITCKASDHINNWLAWYQQKPGQAPKLLIYGATTLETGVPSRFSGSGSGTDYTLTISSLQPEDFATYYCQQSWNTPWTFGQGTKLEIKRLEDLKNVFPPEVAVFEPSKAEIAHTQKATLVCLATGFYPDHVELSWWVNGKEVHSGVCTDPQPLKEQPALNDSRYCLSSRLRVSATFWQNPRNHFRCQVQFYGLSENDEWTQDRAKPVTQIVSAEAWGRADCGITSASYHQGVLSATILYEILLGKATLYAVLVSALVLMAMVKRKDSRGRAKRSGSGATNFSLLKQAGDVEENPGPTSATMDWIWRILFLVGAATGAHSGPEVQLVESGGGLVQAGGSLRLSCAASGRTFSMGWFRQAPGKEREFVAAITYSGGSPYYADSVKGRFTISRDNAKNTVYLQMNSLKPEDTAVYYCAANPTYGSDWNAENWGQGTQVTVSSGSGGGGSGGGGSGGGGSFEQVQLQQPGAELVKPGASVKMSCKASGYAFSSYWINWMKQKPGQGLEWIGQIYPGDGDTNYNGKFKGRATLTADTSSSTAYMQLSSLTSEDSAVYFCARSITTVVGCAMDYWGQGTSVTVSSTRIQNPDPAVYQLRDSKSSDKSVCLFTDFDSQTNVSQSKDSDVYITDKCVLDMRSMDFKSNSAVAWSNKSDFACANAFNNSIIPEDTFFPSPESSCDVKLVEKSFETDTNLNFQNLSVIGFRILLLKVAGFNLLMTLRLWSSRAKRSGSGVKQTLNFDLLKLAGDVESNPGPSRGHMTEYKPTVRLATRDDVPRAVRTLAAAFADYPATRHTVDPDRHIERVTELQELFLTRVGLDIGKVWVADDGAAVAVWTTPESVEAGAVFAEIGPRMAELSGSRLAAQQQMEGLLAPHRPKEPAWFLATVGVSPDHQGKGLGSAVVLPGVEAAERAGVPAFLETSAPRNLPFYERLGFTVTADVEVPEGPRTWCMTRKPGA
B2: 22245 (protein)
chain: B1 chain
B3: 22160 (protein)
chain: MALPVTALLLPLALLLHAARPACEVQLLESGGGLIQPGGSLRLSCAASGFTFSSHAMTWVRQAPGKGLEWVSAISGSGDYTHYADSVKGRFTISRDNSKNTVYLQMNSLRAEDSAVYYCAKDEDGGSLLGHRGQGTLVTVSSGTGGGGSGGGGSGGGGSEFDIQMTQSPSSLSASVGDRVTITCKASQDVGIAVAWYQQKPGKVPKLLIYWASTRHTGVPDRFSGSGSGTDFTLTISSLQPEDVATYYCQQYSSYPYTFGQGTKVEIKRLEADVSPKPTIFLPSIAETKLQKAGTYLCLLEKFFPDVIKIHWQEKKSNTILGSQEGNTMKTNDTYMKFSWLTVPEKSLDKEHRCIVRHENNKNGVDQEIIFPPIKTDVITMDPKDNCSKDANDTLLLQLTNTSAYYMYLLLLLKSVVYFAIITCCLLRRTAFCCNGEKSRAKRSGSGATNFSLLKQAGDVEENPGPTSMDWIWRILFLVGAATGAHSGPQVQLQESGGGLAQAGGSLRLSCAASGRTFSMGWFRQAPGKEREFVAAITYSGGSPYYASSVRGRFTISRDNAKNTVYLQMNSLKPEDTAVYYCAANPTYGSDWNAENWGQGTQVTVSSGSGGGGSGGGGSGGGGSFEQVQLQQPGAELVKPGASVKMSCKASGYAFSSYWINWMKQKPGQGLEWIGQIYPGDGDTNYNGKFKGRATLTADTSSSTAYMQLSSLTSEDSAVYFCARSITTVVGCAMDYWGQGTSVTVSSTRPHTKPSVFVMKNGTNVACLVKEFYPKDIRINLVSSKKITEFDPAIVISPSGKYNAVKLGKYEDSNSVTCSVQHDNKTVHSTDFEVKTDSTDHVKPKETENTKQPSKSCHKPKAIVHTEKVNMMSLTVLGLRMLFAKTVAVNFLLTAKLFFLRAKRSGSGVKQTLNFDLLKLAGDVESNPGPSRGHMTEYKPTVRLATRDDVPRAVRTLAAAFADYPATRHTVDPDRHIERVTELQELFLTRVGLDIGKVWVADDGAAVAVWTTPESVEAGAVFAEIGPRMAELSGSRLAAQQQMEGLLAPHRPKEPAWFLATVGVSPDHQGKGLGSAVVLPGVEAAERAGVPAFLETSAPRNLPFYERLGFTVTADVEVPEGPRTWCMTRKPGA
B4: 22246 (protein)
chain: MALPVTALLLPLALLLHAARPACEVQLLESGGGLIQPGGSLRLSCAASGFTFSSHAMTWVRQAPGKGLEWVSAISGSGDYTHYADSVKGRFTISRDNSKNTVYLQMNSLRAEDSAVYYCAKDEDGGSLLGHRGQGTLVTVSSGTGPQGIFGQPGYINEFDIQMTQSPSSLSASVGDRVTITCKASDHINNWLAWYQQKPGQAPKLLIYGATTLETGVPSRFSGSGSGTDYTLTISSLQPEDFATYYCQQSWNTPWTFGQGTKLEIKRLEDLKNVFPPEVAVFEPSKAEIAHTQKATLVCLATGFYPDHVELSWWVNGKEVHSGVCTDPQPLKEQPALNDSRYCLSSRLRVSATFWQNPRNHFRCQVQFYGLSENDEWTQDRAKPVTQIVSAEAWGRADCGITSASYHQGVLSATILYEILLGKATLYAVLVSALVLMAMVKRKDSRGRAKRSGSGATNFSLLKQAGDVEENPGPTSATMDWIWRILFLVGAATGAHSGPEVQLVESGGGLVQAGGSLRLSCAASGRTFSMGWFRQAPGKEREFVAAITYSGGSPYYADSVKGRFTISRDNAKNTVYLQMNSLKPEDTAVYYCAANPTYGSDWNAENWGQGTQVTVSSGSGGGGSGGGGSGGGGSFEQVQLQQPGAELVKPGASVKMSCKASGYAFSSYWINWMKQKPGQGLEWIGQIYPGDGDTNYNGKFKGRATLTADTSSSTAYMQLSSLTSEDSAVYFCARSITTVVGCAMDYWGQGTSVTVSSTRIQNPDPAVYQLRDSKSSDKSVCLFTDFDSQTNVSQSKDSDVYITDKCVLDMRSMDFKSNSAVAWSNKSDFACANAFNNSIIPEDTFFPSPESSCDVKLVEKSFETDTNLNFQNLSVIGFRILLLKVAGFNLLMTLRLWSSRAKRSGSGVKQTLNFDLLKLAGDVESNPGPSRGHMTEYKPTVRLATRDDVPRAVRTLAAAFADYPATRHTVDPDRHIERVTELQELFLTRVGLDIGKVWVADDGAAVAVWTTPESVEAGAVFAEIGPRMAELSGSRLAAQQQMEGLLAPHRPKEPAWFLATVGVSPDHQGKGLGSAVVLPGVEAAERAGVPAFLETSAPRNLPFYERLGFTVTADVEVPEGPRTWCMTRKPGA
B5: 22224 (protein)
chain: MALPVTALLLPLALLLHAARPDIQMTQSPSSLSASVGDRVTITCKASDHINNWLAWYQQKPGQAPKLLIYGATTLETGVPSRFSGSGSGTDYTLTISSLQPEDFATYYCQQSWNTPWTFGQGTKLEIKRLEDLKNVFPPEVAVFEPSEAEISHTQKATLVCLATGFYPDHVELSWWVNGKEVHSGVCTDPQPLKEQPALNDSRYCLSSRLRVSATFWQNPRNHFRCQVQFYGLSENDEWTQDRAKPVTQIVSAEAWGRADCGFTSESYQQGVLSATILYEILLGKATLYAVLVSALVLMAMVKRKDSRGRAKRSGSGATNFSLLKQAGDVEENPGPTSATMDWIWRILFLVGAATGAHSGPEVQLVESGGGLVQAGGSLRLSCAASGRTFTMGWFRQAPGKEREFVAAISLSPTLAYYADSVKGRFTISRDNAKNTVVLQMNSLKPEDTALYYCAADRKSVMSIRPDYWGQGTQVTVSSGSALRRLLGLFGFEQVQLQQPGAELVKPGASVKMSCKASGYAFSSYWINWMKQKPGQGLEWIGQIYPGDGDTNYNGKFKGRATLTADTSSSTAYMQLSSLTSEDSAVYFCARSITTVVGCAMDYWGQGTSVTVSSTRIQNPDPAVYQLRDSKSSDKSVCLFTDFDSQTNVSQSKDSDVYITDKCVLDMRSMDFKSNSAVAWSNKSDFACANAFNNSIIPEDTFFPSPESSCDVKLVEKSFETDTNLNFQNLSVIGFRILLLKVAGFNLLMTLRLWSSRAKRSGSGVKQTLNFDLLKLAGDVESNPGPSRGHMTEYKPTVRLATRDDVPRAVRTLAAAFADYPATRHTVDPDRHIERVTELQELFLTRVGLDIGKVWVADDGAAVAVWTTPESVEAGAVFAEIGPRMAELSGSRLAAQQQMEGLLAPHRPKEPAWFLATVGVSPDHQGKGLGSAVVLPGVEAAERAGVPAFLETSAPRNLPFYERLGFTVTADVEVPEGPRTWCMTRKPGA

These molecules were tested on Nalm6 cells (assay: JNG assay, co-culture with Nalm6 cells). Details: co-culture with Nalm6.
Type: cell-based
Summary of the method: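 Scoring uses % GFP+ reporter cells above the parental control, where +/-, +, 2+, 3+, 4+ and 5+ correspond to about 5, 10, 20, 30, 40 and 50%. Effectors were SAR-expressing Jurkat NFAT-GFP cells cocultured with targets (E:T ~1:2, ~4–18 h).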

Molecule	NFAT-GFP ASSAY: Nalm6
B1	+/- (refer to approximately 5%, 10%, 20%, 30%, 40% and 50% GFP positive cells)
B2	+/- (refer to approximately 5%, 10%, 20%, 30%, 40% and 50% GFP positive cells)
B3	+ (refer to approximately 5%, 10%, 20%, 30%, 40% and 50% GFP positive cells)
B4	+ (refer to approximately 5%, 10%, 20%, 30%, 40% and 50% GFP positive cells)

These molecules were tested on RAJI cells (assay: JNG assay, co-culture with RAJI cells). Details: JNG cells expressing construct, co-culture with Raji.
Type: cell-based
Summary of the method: (§1)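 Jurkat-NFAT-GFP (JNG) cells stably expressing SAR constructs via lentiviral transduction and puromycin/blasticidin selection were cocultured with target cells at E:T ~1:2 for ~4–18 h. NFAT-driven GFP was measured by FACS versus parental JNG cells; scores +/- to 5+ denote ~5–50% GFP-positive cells.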

Molecule	NFAT-GFP ASSAY: Raji
B3	2+ (refer to approximately 5%, 10%, 20%, 30%, 40% and 50% GFP positive cells)
B5	+ (refer to approximately 5%, 10%, 20%, 30%, 40% and 50% GFP positive cells)

What follows are molecules tested on RAJI-CD19-KO cells (assay: JNG assay, co-culture with RAJI-CD19-KO cells). Details: co-culture with Raji-CD19-KO.
Type: cell-based
Summary of the method: as §1

Molecule	NFAT-GFP ASSAY: Raji-CD19-KO
B1	+ (refer to approximately 5%, 10%, 20%, 30%, 40% and 50% GFP positive cells)
B2	+ (refer to approximately 5%, 10%, 20%, 30%, 40% and 50% GFP positive cells)
B5	2+ (refer to approximately 5%, 10%, 20%, 30%, 40% and 50% GFP positive cells)

These molecules were tested on U266 cells (assay: JNG NFAT-GFP induction on co-culture with U266). Details: not given.
Type: cell-based

Molecule	NFAT-GFP ASSAY: U266
B1	+ (refer to approximately 5%, 10%, 20%, 30%, 40% and 50% GFP positive cells)
B2	+ (refer to approximately 5%, 10%, 20%, 30%, 40% and 50% GFP positive cells)
B3	3+ (refer to approximately 5%, 10%, 20%, 30%, 40% and 50% GFP positive cells)
B4	2+ (refer to approximately 5%, 10%, 20%, 30%, 40% and 50% GFP positive cells)
B5	4+ (refer to approximately 5%, 10%, 20%, 30%, 40% and 50% GFP positive cells)

What follows are molecules tested on L363 cells (assay: JNG assay, co-culture with L363 cells). Details: co-culture with L363.
Type: cell-based
Summary of the method: as §1

Molecule	NFAT-GFP ASSAY: L363
B1	+/- (refer to approximately 5%, 10%, 20%, 30%, 40% and 50% GFP positive cells)
B2	+/- (refer to approximately 5%, 10%, 20%, 30%, 40% and 50% GFP positive cells)
B3	+ (refer to approximately 5%, 10%, 20%, 30%, 40% and 50% GFP positive cells)
B4	+ (refer to approximately 5%, 10%, 20%, 30%, 40% and 50% GFP positive cells)
B5	2+ (refer to approximately 5%, 10%, 20%, 30%, 40% and 50% GFP positive cells)
